Laboratory results taken from patent US20260201043A1 (INSTITUT NATIONAL DE LA RECHERCHE SCIENTIFIQUE, published 2026).

Experiments:
[1] = biological target: T1, recombinant human galectin-13 (human, UniProt Q9UHV8 1-139, biotinylated for the phage ELISA; labeled with FITC for the HepG2 cell binding assay); assay: ELISA: sdAb immobilized at 1 µM, 5 µM galectin
T1 construct: The background says that Gal-13 dimerizes through Cys136 and Cys138; also called GAL-13; Gal-13
T1 sequence (looked up): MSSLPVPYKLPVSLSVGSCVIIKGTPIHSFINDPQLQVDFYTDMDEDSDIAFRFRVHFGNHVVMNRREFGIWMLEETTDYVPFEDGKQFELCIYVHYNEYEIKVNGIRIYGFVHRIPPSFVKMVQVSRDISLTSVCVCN
Method: Briefly, Nbs were immobilized at 1 μM for 1 h at RT, followed by blocking with PBS containing 10% (v/v) BSA and 0.05% (v/v) Tween™ 20. 5 μM of galectin were incubated for 1 h at RT. […] The colorimetric assay was carried out with 3,3′,5,5′-tetramethylbenzidine per the manufacturer's recommendations. Data (mean values±SD) from one experiment is shown. Statistical differences were assessed using Dunnett's multiple comparisons test. RT=room temperature

[2] = biological target: T2, recombinant N-terminal domain of human GAL-9 (human, UniProt O00182 1-148); assay: ELISA: sdAb immobilized at 1 µM, 5 µM GAL-9N
T2 construct: also called GAL-9N; Gal-9N
Method: (§1) FIGS. 19A-B show the binding of recombinant N-terminal domain of human GAL-9 (GAL-9N, FIG. 19A) and recombinant C-terminal domain of human GAL-9 (GAL-9C, FIG. 19B) to GAL-9-specific sdAbs as measured by ELISA. Briefly, sdAbs were immobilized at 1 μM for 1 h at RT, followed by blocking with PBS containing 10% (v/v) BSA and 0.05% (v/v) Tween™ 20. 5 μM of recombinant GAL-9N or GAL-9C were incubated for 1 h at RT. […] The colorimetric assay was carried out with 3,3′,5,5′-tetramethylbenzidine per the manufacturer's recommendations. Data (mean values±SD) from three independent experiments is shown. Statistical differences were assessed using Tukey's multiple comparisons test. RT=room temperature.

[3] = biological target: T3, recombinant C-terminal domain of human GAL-9 (human, UniProt O00182 210-355); assay: ELISA: sdAb immobilized at 1 µM, 5 µM GAL-9C
T3 construct: also called GAL-9C; GAL-9C (210-355)
Method: as §1

[4] = biological target: T1, recombinant human galectin-13; assay: non-adsorbed phage ELISA on biotinylated GAL-13
[5] = biological target: T1, recombinant human galectin-13; assay: cell-based or functional assay

T2 sequence (O00182 1-148 limits assumed): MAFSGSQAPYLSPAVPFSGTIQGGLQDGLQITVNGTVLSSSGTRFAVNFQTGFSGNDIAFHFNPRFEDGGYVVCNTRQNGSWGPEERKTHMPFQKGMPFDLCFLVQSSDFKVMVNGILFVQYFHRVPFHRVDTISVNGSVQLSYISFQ
T3 sequence (O00182 210-355 limits assumed): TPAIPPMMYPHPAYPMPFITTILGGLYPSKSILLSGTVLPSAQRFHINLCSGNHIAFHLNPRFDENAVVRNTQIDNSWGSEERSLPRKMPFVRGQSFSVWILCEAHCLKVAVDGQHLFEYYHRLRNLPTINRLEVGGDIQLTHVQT

B1: G9N3 (VHH)
VHH: EVQLQASGGGFVQPGGSLRLSCAASGDGSGWDIMGWFRQAPGKEREFVSAISRHDTTYSYYADSVKGRFTISRDNSKNTVYLQMNSLRAEDTATYYCATIPASWNKSYWGQGTQVTVSS
notes: Synthetic humanized sdAb; on M13 phage in the screening ELISA, purified with His and cMyc tags and immobilized in wells otherwise; also called GAL-9-specific sdAb G9N3; not shown: 6xHis and cMyc tags from vector pHEN2
binding result [1]: binds | binding result [2]: binds | binding result [3]: binds

B2: G13N2 (VHH)
VHH: EVQLQASGGGFVQPGGSLRLSCAASGSTSRSSGMGWFRQAPGKEREFVSAISYRGSGARYYADSVKGRFTISRDNSKNTVYLQMNSLRAEDTATYYCAMWQRQIQPGTRPVWKYWGQGTQVTVSS
notes: Synthetic humanized sdAb; on M13 phage in the screening ELISA, purified with His and cMyc tags otherwise; also called GAL-13 sdAb G13N2; not shown: 6xHis and cMyc tags from vector pHEN2
binding result [4]: binds

B3: G9N1 (VHH)
VHH: EVQLQASGGGFVQPGGSLRLSCAASGDTSGEYSMGWFRQAPGKEREFVSAISDQGGIEIYYADSVKGRFTISRDNSKNTVYLQMNSLRAEDTATYYCAHTFYDMPDGYRQYWGQGTQVTVSS
notes: Synthetic humanized sdAb; on M13 phage in the screening ELISA, purified with His and cMyc tags and immobilized in wells otherwise; also called GAL-9-specific sdAb G9N1; not shown: 6xHis and cMyc tags from vector pHEN2
binding result [1]: binds | binding result [2]: binds

B4: G13N1 (VHH, not shown: small tags and cut ends)
VHH: EVQLQASGGGFVQPGGSLRLSCAASGFGSNRSTMGWFRQAPGKEREFVSAISSLSSDPPYYADSVKGRFTISRDNSKNTVYLQMNSLRAEDTATYYCAPAGMRGVMEYWGQGTQVTVSS
inhibition of galectin-13-induced apoptosis of Jurkat T cells [5]: -27%

B5: G13N8 (VHH)
VHH: EVQLQASGGGFVQPGGSLRLSCAASGTTWQETKMGWFRQAPGKEREFVSAISRGPNYYPYYADSVKGRFTISRDNSKNTVYLQMNSLRAEDTATYYCADEWMGSINARGHSGYYWGQGTQVTVSS
notes: Synthetic humanized sdAb; on M13 phage in the screening ELISA, purified with His and cMyc tags otherwise; also called GAL-13 sdAb G13N8; not shown: 6xHis and cMyc tags from vector pHEN2
binding result [4]: binds

B6: G13N4 (VHH, not shown: small tags and cut ends)
VHH: EVQLQASGGGFVQPGGSLRLSCAASGSSYAGSAMGWFRQAPGKEREFVSAISSDPDTKAYYADSVKGRFTISRDNSKNTVYLQMNSLRAEDTATYYCAISGQYPYARYWGHGTQVTVSS
inhibition of galectin-13-induced apoptosis of Jurkat T cells [5]: -31%

B7: G13N6 (VHH, not shown: small tags and cut ends)
VHH: EVQLQASGGGFVQPGGSLRLSCAASGRTSSLTSMGWFRQAPGKEREFVSAISFSGSMFTYYADSVKGRFTISRDNSKNTVYLQMNSLRAEDTATYYCADKWMHKPANYWGQGTQVTVSS
inhibition of galectin-13-induced apoptosis of Jurkat T cells [5]: -27%

B8: G13N5 (VHH, not shown: small tags and cut ends)
VHH: EVQLQASGGGFVQPGGSLRLSCAASGYTSNEDSMGWFRQAPGKEREFVSAISRGPSFRTYYADSVKGRFTISRDNSKNTVYLQMNSLRAEDTATYYCAIRLGRLYRYGDLTPKSAYYWGQGTQVTVSS
inhibition of galectin-13-induced apoptosis of Jurkat T cells [5]: -44%

B9: G9N4 (VHH)
VHH: EVQLQASGGGFVQPGGSLRLSCAASGGTWRWTIMGWFRQAPGKEREFVSAISRTNSEYQYYADSVKGRFTISRDNSKNTVYLQMNSLRAEDTATYYCAEPTAVWADKGQEMQSYWGQGTQVTVSS
notes: Synthetic humanized sdAb; on M13 phage in the screening ELISA, purified with His and cMyc tags and immobilized in wells otherwise; also called GAL-9-specific sdAb G9N4; not shown: 6xHis and cMyc tags from vector pHEN2
binding result [2]: binds | binding result [3]: binds

B10: G13N9 (VHH, not shown: small tags and cut ends)
VHH: EVQLQASGGGFVQPGGSLRLSCAASGRGSALTTMGWFRQAPGKEREFVSAISGDTGLYVYYADSVKGRFTISRDNSKNTVYLQMNSLRAEDTATYYCAGKWLGGRQADTRYWGQGTQVTVSS
inhibition of galectin-13-induced apoptosis of Jurkat T cells [5]: -33%

B11: G13N10 (VHH)
VHH: EVQLQASGGGFVQPGGSLRLSCAASGRTSNQTIGWFRQAPGKEREFVSAISARFDEYGYYADSVKGRFTISRDNSKNTVYLQMNSLRAEDTATYYCALGWPQKSTWRAYTAEYWGQGTQVTVSS
notes: Synthetic humanized sdAb; on M13 phage in the screening ELISA, purified with His and cMyc tags otherwise; also called Nb #10; GAL-13 sdAb G13N10; not shown: 6xHis and cMyc tags from vector pHEN2
binding result [4]: binds

B12: G13N3 (VHH, not shown: small tags and cut ends)
VHH: EVQLQASGGGFVQPGGSLRLSCAASGRGSRWYGMGWFRQAPGKEREFVSAISAQHSTRAYYADSVKGRFTISRDNSKNTVYLQMNSLRAEDTATYYCAGYMSKMGERKWKYWGQGTQVTVSS
inhibition of galectin-13-induced apoptosis of Jurkat T cells [5]: -23.5%
